System: MS2 coat protein
Experiment: apparent KD of MS2 coat protein; designed switch direction (-1 OFF switch, 1 ON switch): -1; higher = weaker reporter binding
Summary of the method: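 Designed RNA switches with common flanks were transcribed on Illumina chips by stalled E. coli RNA polymerase and titrated with SNAP-549-labelled MS2 coat protein, from 0.7 or 1.5 nM doubling to 3 µM, in Tris-HCl pH 7.5 buffer with KCl, MgCl2, BSA, DTT, tRNA and Tween-20. Steps lasted 0.8–1.5 h (lowest) to 10–20 min (highest). Titrations ran without input, with 200 uM small-molecule ligand, or with an oligonucleotide input. Normalised cluster fluorescence was curve-fitted, and apparent KD is the per-design median over clusters.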

[1] = input ligand: microRNA oligo, concentration not stated
[2] = Eterna round: R95, input ligand: FMN 200 uM
[3] = Eterna round: R95, input ligand: microRNA oligo, concentration not stated
[4] = Eterna round: R95, input ligand: none

Sequence | apparent KD of MS2 coat protein (input ligand: FMN 200 uM) | apparent KD of MS2 coat protein [1] | apparent KD of MS2 coat protein (input ligand: none) | apparent KD of MS2 coat protein [2] | apparent KD of MS2 coat protein [3] | apparent KD of MS2 coat protein [4]
UUUAAUUUUUUUUUUUUACAAGCUUUUUGCUCGUCUUAUACAUGAGGAUCACCCAUGUGGGUGGAAAAUAAAUUAUC [JMF 92] (Eterna round: R96, puzzle: Sensor v3, turn-off variant 2) | 583 nM | 232 nM | 472 nM | – | – | –
AGCCCGCAAGGAGGAUAUUAACAUGAGGAUCACCCAUGUAAUCACUAGAUAGCACGGGCGGUUCGUAAGAAGGUCUAGUGGAAU [Eternabot solution 24] (Eterna round: R96, puzzle: Exclusion NG 2) | 35.4 nM | 22.3 nM | 33.1 nM | – | – | –
CACUGGACAGGAUAUGUUCUUGAGCACUUGAGGAUCACCCAAGUCAUCAAGAACUCAGGCACAGAAGGGUUUAUGG [salish99_ex5_r4_013] (Eterna round: R97, puzzle: Exclusion 5) | 38.9 nM | – | 16.9 nM | – | – | –
GGGCCCGGUGUGAGGAUAUUGGGCCCGAAAGGGCCCGAGAAGGCACAUGAGGAUCACCCAUGUAAGCCGGGCCC [-46.5, -44.5 kcal, A 23%, 5c-0] (Eterna round: R97, puzzle: Brourd's mod of Exclusion 4) | 15.8 nM | – | 14.9 nM | – | – | –
GCACGGAGUGUAGGAUAUCUGUGCGAUUAGCUCAGAGAAGGGCACAUGAGGAUCACCCAUGUGUAUAAACACAAUAAUCCGUGC [Eli exng1 - 069] (Eterna round: R96, puzzle: Exclusion NG 1) | 12.8 nM | 7.91 nM | 14.1 nM | – | – | –
GACCUACAUGAGGAUCACCCAUGUCAGGAUAUGUGGCGGAGUACGAACAGUCCAAGCGACAGAAGGGACAACAG [Eternabot (Original) Solution 24] (Eterna round: R97, puzzle: Exclusion 1) | 27.8 nM | – | 25.3 nM | – | – | –
CUUGUAAAUGUGAGGAUAUACUGUUAGUAAAGUUAGUAGAAGGUACAUGAGGAUCACCCAUGUUAAUUACUCUA [JR_BME4_Sub047] (puzzle: Brourd's mod of Exclusion 4) | – | – | – | 15.9 nM | 13.2 nM | 14.5 nM
AAUUAGCAAGCGAGGUCCCACAUGAGGAUCACCCAUGUGCUCGUCUUAUAAGGUACUGUGACGAGAGUCACGGUACC [Mat - Sensor, turn-off var - Eli Mod - D35] (Eterna round: R97, puzzle: Sensor, turn-off variant 1) | 13.8 nM | – | 15.2 nM | – | – | –
UCUGGUCGAGGAUAUACAUGAGGAUCACCCAUGUGAUUAGCAGUCCUCGGACUGCAAUGUAGAAGGCGACCAGA [E3/2-A3] (Eterna round: R97, puzzle: Exclusion 3) | 894 nM | – | 393 nM | – | – | –
UCUGGAGCAGGAUAUAUAUGACGUGCUUCGGCACGGUGAGUACAUGAGGAUCACCCAUGUAGAAGGGCUCCAGA [Exclusion 2 (Mod of Brourd's E2/9-D2)] (Eterna round: R97, puzzle: Exclusion 2) | 81.8 nM | – | 20.3 nM | – | – | –
CCGGCUUAGGAGGAUAUAGGAGUCGAUAGACACCUAGAAGGCCUGACAUGAGGAUCACCCAUGUGUCCUACCGG [Fiskers Ex 6 - 98] (puzzle: Exclusion 6) | – | – | – | 31.1 nM | 14.2 nM | 16.5 nM
GUAUAGCGAGGAUAUACAUGAGGAUCACCCAUGUGAUCCUUAGGCUGUACAAGCCAAUGUAGAAGGCGCAAAUU [jl-ex3.4.59 ViennaUCT mod] (Eterna round: R97, puzzle: Exclusion 3) | 75.7 nM | – | 147 nM | – | – | –
AAAAGUCUUUAGGAUAUGUGCGAUUAAUAUCGUGCAGAAGGAAGGACAUGAGGAUCACCCAUGUUGAAGACAAC [Omei Ex6 A19] (Eterna round: R97, puzzle: Exclusion 6) | 51.1 nM | – | 22.1 nM | – | – | –
